Substrate: O=C(O)[C@H]1NCC[C@@H]1O
Experiment: purified protein
Type: biochemical, Homo sapiens
Details: oxidizing conditions, without DTT; 1xPBS; substrate-inhibition fit; with 1 mM DTT a separate lower KM is reported; substrate named only hydroxyproline in methods

B1: human trans-3-Hydroxy-L-proline dehydratase (hL3HYPDH) (Homo sapiens) (protein)
chain: MESALAVPRLPPHDPGTPVLSVVDMHTGGEPLRIVLAGCPEVSGPTLLAKRRYMRQHLDHVRRRLMFEPRGHRDMYGAVLVPSELPDAHLGVLFLHNEGYSSMCGHAVLALGRFALDFGLVPAPPAGTREARVNIHCPCGLVTAFVACEDGRSHGPVRFHSVPAFVLATDLMVDVPGHGKVMVDIAYGGAFYAFVTAEKLGLDICSAKTRDLVDAASAVTEAVKAQFKINHPDSEDLAFLYGTILTDGKDAYTKEPTTNICVFADEQVDRSPTGSGVTARIALQYHKGLLELNQMRAFKSSATGSVFTGKAVREAKCGDFKAVIVEVSGQAHYTGTASFIIEDDDPLRDGFLLK
notes: recombinant, cloned in pET28b, E. coli BL21(DE3), His-Trap then Superdex 200; homodimer; crystal model residues 4-354; Cys104-Cys137 intramolecular disulphide
Km: 416.7 µM

— publication PMC9309405, “The integration of AlphaFold-predicted and crystal structures of human trans-3-hydroxy-L-proline dehydratase reveals a regulatory catalytic mechanism” (Computational and Structural Biotechnology Journal, 2022)
